Test results reported in the DeepSol protein solubility set.

Assay: soluble on expression in E. coli; label from the status in PepcDB or PDB records

Row | Sequence | soluble on expression in E. coli
1 | MQQEALSFLSSSLPSLHHNFPSLSRLRFNNFPALSFKPNTSSSSSSFFKSPDIPSLSSTTTTTTTTETLESSIHEKLIYLDSLGIDFLTLINRHPPLLSTALSAVESVVDYMTTPPINFTLQDFRRLVSMCPELLTSPLTSHTIPVITFLLREVGVDSIFDLRQALRRRPRLLACSVDHQLRPTLYFLQRIGILDPHKHTYLLSCSVDNKLVPRIDYFEKLGFSRRSATAMFKRFPQLFNYSIAENYEPKLKYLMVEMGRDVREVLEFPQYFSFSLENRIKPRHEACAAKGVRFPLPVMLKTNEAGFRDTLEVCCDSSPPLKTSRLVTVQKDS | not soluble
2 | LSPLEARVIGCLIEKEVTTPDHYPLTLNSLTTACNQKSNREPVLNLSEAEVQDTVEGLIARRLVSDESSFNSRTSKYQHRFCNTEFGDLKLNQQELGLICCLLLRGAQTPGELRTRTNRLCTFTDVKETEAVLERLANRDSGALVVKLPREPGKRESRYHHLFCGEVDMAAFATSSDNE | not soluble
3 | MGSDKIHHHHHHMDELYIMNPWWRDPEIINTDRHISMFENSTFKYFPENLFKKIPLNKPGIYTIRGPRQVGKTTFLKLYIRKLLRDGVKPSNIFFFTCDAVKDRFELIETMKAYFQIFERKAGETRYLFIDEITAVEDWQKSIKYLVDIGLLENSLLILTGSSAFDLKRSSERLPGRKGYGEDLVYLPLTFGEFLESLGISVERMSVDDIFLKSEEELRILYLKNSFLKEYFVKYLNTGGFPKVIDVFLKEGKIDEITKGVFRDFILGDAEKYLGSRIKVIEIFKKLPDIVGQRFSWNSLVDIFSGAIESVDTIQKYFEYLGYSFILMNVFFVDISRKTVRLKKQKKTYPIDRVVVDIIEEISGKQIKLPQIVEMLTLRHLMGNGKTLPNGMNLYDGPFFWYSDRGNEVDFVFEHGDSLIPVEINFQNNIHRSDYAGMKKVFKKGIVITQDAIFRDENIVAVPAWLFFAVFEGNE | not soluble
4 | VSMDELDPHVARALTLAARFQSALDGTLNQMNNGSFRATDEAETVEVTINGHQWLTGLRIEDGLLKKLGAEAVAQRVNEALHNAQAAASAYNDAAGEQLTAALSAMSRAMNEGMA | soluble
5 | MGSDKIHHHHHHMVSKMTNQRVLTVPGGINFRELGGYSTKDGRKIKWHKVIRTGGLDQLTPTGQALLDDYGVRYDIDFRSPQEVLDAPDRIPANAKYVYAPVFNVDETRNSDGTDKMTANLEKHPDSGFKHMLKVYQMVADEQHAKDEYRRFFDNLLANDQPDSTLLFHCTAGKDRTGMGAVYLLTALGVDFETIKQDYLLTNQASIGRINGAMAEARAQGASDATVESIRALWSVDADYLDAAMTEIKRQSGNLNHYLHTELKLTNNEINDLQRIYLE | not soluble
6 | MHHHHHHSSGLVPRGSGMKETAAAKFERQHMDSPDLGTDDDDKAMADIGSEFMSTYHERPLGPASAAEWFRQRSYDYGQFPPEDLARRKRELGLTVSAVLPSRNVADTVGGIIDEIHALNERAPLIDQILVVDADSEDGTAGVAASHGAEVYSENELMSGYGDAHGKGDAMWRALSVTRGDLVLYIDADTRDFRPQLAYGVLGPVLEVPGVRFVKAAYRRPFRKGESIEEDGGGRVTELTAKPLFNLFYPELAGFVQPLAGEFVADRELFCSIPFLTGYAVETGIMIDVLKKVGLGAMAQVDLGERQNRHQHLRDLSRMSYAVVRAVARRLRQEGRLQQLREPGLPESFFQLSDYLHAVATPEGLKLQEYVEELVERPPINEVLRVR | soluble
7 | MGSDKIHHHHHHMAQIIVVTSGKGGVGKTTSSAAIATGLALKGKKTVVIDFDIGLRNLDLIMGCERRVVYDFVNVINGEANLNQALIKDKRCDKLFILPASQTRDKDALTKEGVGRVLENLAKDFDYIVCDSPAGIEQGAMMALYFADIAIVTTNPEVSSVRDSDRILGMLQSRSRRAELSLEPIKEYLLLTRYSPARVKTGEMLSVEDVKEILAIELLGVIPESQSVLKASNSGVPVIIDQESDAGLAYGDTVARLLGDDVPVRFITEEKKGFLKRIFGS | not soluble
8 | MKLKSNNIYEKMNQYSVVGLSLAVIRDGKLDETAAFGTLESGTNRTVTIDSIFNSCSISKFITTILILTLSDLKIVHLDEDVNDRLTSWNIPTNLFTSQKKVTLRNLLSHQSGIIDPPNSFEHYLLAQGQPNMSELLAGKTLYCSVPIEVTYKPESEFHYSDANFCIIEILLEDITGKPFNLLLEESIFQPLQMKNSTIFSPEDIDKTDAFACGHNKDGTVTNEKYPFYPFAAASGIWTTPTDLSALVIEIIHSLQGKGKLKLSQKTVQDMISPQGCSKWTGLGVFLDDLNEDLQIYSLGWGVGFQCMMICYPYRGNGAIIMTNADLGVHQMEGIIGDVLKTLSL | not soluble
9 | MVTVPEGYEANVIYALGDSINPRVGDWDDNNIPSGPSFQFRSGDCHDGMHYFGLNTSTNRFDETVSAQGLLVMNHEYINQTFLHPKGPTKVDGRRPEDEVIRETNAHGVSVVHIKKDPTTQKVEIVKNSIFNRRITASTVMEFAGAAAGSSLLATRFSPAGRQTRGTHNNCGNGYTPWGTYLTTEENFIGYFQRSGSDEYARTDAEKIALKRYGLGVKKDEPYLYEKDEKGAPKKDKDGKIIYLKDKNGELIPNVDEQGRQIYLGTSSRYGWETAIGQVESQDLYDRWNADVKAAQATQDYRNGPNTFGWMVEIDPFDGRQNPVKRTSLGRFAHEDSACRAVVGQPLAFYMGDDSRGEYIYKFVSTAVWDTKDINGGYTAGDKYMNAGKLYVAKFNNDGSGQWIELAYGKNGLNESNTTYPFKSQADVVTFARLAADSVGATKMDRPEWCTVNPVNGEIYVTLTNNSNRGKDYATDAANPRNYTDLYAGTKEQKGNVNGHIIRFKETDDKTTAETFKWDIYLFGAEASMASNINLSGLTDNNDFSSPDGMWFDPRGVLWIETDDGAYTDVTNCMMLAALPGQIGDGGTLEHHHHHH | soluble
10 | MGSDKIHHHHHHMETQQLLSIYPQATISPRPSVAKNMVCVAIDAGKYICIDTTNLSNRELSLLELLTHTKSNATTGDAWSEFLTGRHTTAPQTTAKKLQILQFRVHFTERHADRSQWLSAIADTFEHVLHRAFITADSGYLLLTESLTDTSADLASLLALIDNDFYTNTHLFIGSTHRSSQDLPTTFALEQQLFSQNQQDTIVTLSSSLLPFLVNQHQPELQALRNSLSLDSDNKQLIRALYHTQGNVRQAASKLFLHRNTLLYRIEKFERCNGLNLKNMDDLVYCYLLTLGQVINQVEK | not soluble
11 | MEEPVLDFQFVHRKIHTGQIAAFDIIARLVPIKNIRGNDFDDRPAAAVFGMHNLQTRPVARHFEGGADFTQLIVLTLGQPESAYVAVRLKIVRGDISRGGVGKLTGKQSHT | not soluble
12 | MASKTIKIMPVGDSCTEGMGGGEMGSYRTELYRLLTQAGLSIDFVGSQRSGPSSLPDKDHEGHSGWTIPQIASNINNWLNTHNPDVVFLWIGGNDLLLNGNLNATGLSNLIDQIFTVKPNVTLFVADYYPWPEAIKQYNAVIPGIVQQKANAGKKVYFVKLSEIQFDRNTDISWDGLHLSEIGYKKIANIWYKYTIDILRALAGETQLEHHHHHH | soluble
13 | MADYDLAIIGGGLNGVSLARDAAGRGLRVILFEQGDLGGAASSATPRLIHGDLSVLERRGFWRVRRALAERRIWLRIAPHLVRPMRFVIPAHSEERPPWLLRAGLYVYDGLTNRGGLPPSATLDITHHPVGNALKRPFGTAFEYSDCVVDDSRLVVLTALDAAERGAAIHTGARCVRADRTDTWRLAVVDRGHRRTITARALANATGGWTSMVADTVLREPQPAMAAMQMSQIIVPRLFDSENVYVFQNNDGRLIFARPLERDFTLIGTVTHAFTGDPAIVAMPGADVSYLCEAASRYFRERVAPTDVVRTVSGVNLTLASARGRDGTALFHARRRKAPLITMFGGDVTTSRLRAERAVTRLTPFYPMSPPWTDGAVLPGGDFAWDRFDTEVDLARDRWRFLSEPEAQRLVAAYGSRLPAVLGEARTRDELGPTFGPELTGAEVRYLMSHEWARFPEDVLWRRSKLGLTMPKADRDGLAAFMADVNDRPEPVEQRPIGRLEHHHHHH | not soluble
14 | MTETGGRHLLEALTLCEVILSRYKRCGLQVDETETKAFQAVSERFHEITHATQGDNAAFVKSQKIIKMAPAIPTIGAVFQTPLESVTKLMEKCIDLCLPIKEVFIMLNEQISAVLRTKNTRTYYLDSGDDLLKDPVNGIAALVDERTPLGKTLFCTRPFSIAGTLYIPLLHNETVIGCVESPSGRTDYHSQAIIDAVLRVAATVIHNTIESERLNWNKEKAEAMLTMATQLARDNLDEAVLANSIMNTAKVLTESDRCSIFLVKDDTLEAHFEDGNIVAIPIATGIAGYVAQTGQTVKISDAYSDDRFNREVDKATGYRTKTILCMPVTYEGSIVAVAQLINKLDMVTESGLRLPRTFGKRDEELFQTFSMFAGASLRNCRINEKLINEKRKSDAILDVVTLLSNTDIRDVDGIVRHVLHGAKRLLYADRSALFLVDKERNELYSRIADSVAGKEIRFPCGQGIAGVVASTGIGENILDAYQDPRFNREVDKQLGYRTQTLLCEPIVLNGEILAVVQLVNKLNEAGEVTVFTESDRETFRVFSLFAGISINNSHLLEFAVKAGREMMELNENRALAGGRTGSLRNIKRPLAITETERQAVRDINLAHLDITSIDFDLFYLRENMDLPLDAAAAVAYRLIVGTGLPQKFRCRDDTLLNFILQCRKKYRNVPYHNFYHVVDVCQTIYTFLYKGAVCEKLTELDCFVLLVTALVHDLDHMGLNNSFYLKTDSPLGILSSASGNASVLEVHHCNLAVEILSDPDSDVFEGLDATDRTLAYRSMIDCVLATDMAKHNELLSLFLVAMEKPYRIGDVASRQMMMDVIVKAGDVSNVTKPFDISRLWAMAVTEEFYRQGDMEKEKGVEVLPMFDRSKNTELAKGQIGFIDFVAGPFFKKIVSASLTGMQWTVERVESNRLEWQRTLDLKAAGDGNK | not soluble
15 | IVMAETKETVIDEVVVTGTGAQKKVTVTGAVTTVDVSQLRTPTASITNALAGNVAGILARQTSGQPGSNISEFWIRGISTFGAGGSALVLVDGFERDMNEINVEDIQDFSVLKDASATAIYGSRGANGVVLITTKRGKEGK | not soluble
16 | MFRRPDDDDDDYSGRKVIKPKPIAEKYAKKLGSEFSTGKTFVTGSDKSQKDFYGSQQVRNDVMKSSDSGGAPLTEDEKNKLSAKILKAEMKGDTDLVKKLKRKLESGISGDDEPPKSKSKEVTMMRRDREGNILPASSRRSDSDRHGEGSSRMRREYEKSQDLDSMVREEKTGTAGDQLRLFERSLIKSSKIRRHDDESVDDIAEMQKGKKKSDEKDKKRKEKESIKEHKRIERSFDDCSRCIDSSRLKKHNIIAVGINTYLAVVEWDGLDDEHLIIVPTQHCSSTIQLDENVWDEMRLWRKGLVAVWKSQNRDCIFFEMSRHVDSNPHVFIECVPVEQEIGDMASIYFKKAINECEGEYMDNKKLIETKDLRRQIPKGFSYFAVDFGLSNGFAHVIESHDHFPSTFATEIIAGMLDLPPKKWRKRETDEMSKQKSRAENFKKLWEPVDWTKRLKNDSTK | soluble
17 | MRPLTLHTPKPLVRAGGIPLIEYHLNALRAAGFHQLVINHAWLGQQIEDYLGDGQRFDLSIRYSAEGQPLETGGGIQRALPLLGAEPFVVVNGDVWTDYDFGALRMPLAGLAHLVLIDNPAHHPTGDFSLVDGQVRDDDSAGLRLTYSGIAILHPQLFADCEPGAFKLAPLLREAMHQGLVTGEHFKGRWVDVGTHERLAEVEQLLAETRLEHHHHHH | not soluble
18 | MGSDKIHHHHHHLQFAVLSSGSAGNCSLLMTDQHKILMDAGLSGKKTKELLAKVGVAIEDLDMVFLSHDHGDHSGGMGVLMRRYPQLNAFSNTVTWKYLEETGKIGCLPKDQINVIEPGQTKCYGDLEVTAFATSHDAAQPQYYVFSSGGKRLACLTDTGYVSEEVEYEIQDADAYLLEFNYDDLMLRSGPYPWSLQQRVRSDHGHLSNEQAAETLARVISSKTKHVFMAHRSQQNNLNYLARDVAEEVLAARDADVASDLELHDTEPMTPSSLINL | not soluble
